Test results as given in PMC9769477 (2022).

Molecular target: 9G1
Experiment: BLI

B1: CVA16/SZ05 viral particles (complex)
chain 1: GDPIADMIDQTVNNQVNRSLTALQVLPTAANTEASSHRLGTGVVPALQAAETGASSNASDKNLIETRCVLNHHSTQETAIGNFFSRAGLVSIITMPTTGTQNTDGYVNWDIDLMGYAQLRRKCELFTYMRFDAEFTFVVAKPNGELVPQLLQYMYVPPGAPKPTSRDSFAWQTATNPSVFVKMTDPPAQVSVPFMSPASAYQWFYDGYPTFGEHLQANDLDYGQCPNNMMGTFSIRTVGTEKSPHSITLRVYMRIKHVRAWIPRPLRNQPYLFKTNPNYKGNDIKCTSTSRDKITTL
chain 2: SPSAEACGYSDRVAQLTIGNSTITTQEAANIVIAYGEWPEYCPDTDATAVDKPTRPDVSVNRFFTLDTKSWAKDSKGWYWKFPDVLTEVGVFGQNAQFHYLYRSGFCVHVQCNASKFHQGALLVAVLPEYVLGTIAGGTGNENSHPPYATTQPGQVGAVLTHPYVLDAGIPLSQLTVCPHQWINLRTNNCATIIVPYMNTVPFDSALNHCNFGLLVIPVVPLDFNAGATSEIPITVTIAPMCAEFAGLRQAVKQ
chain 3: GIPTELKPGTNQFLTTDDGVSAPILPGFHPTPPIHIPGEVRNLLEICRVETILEVNNLKTNETTPMQRLCFPVSVQSKTGELCAAFRADPGRDGPWQSTILGQLCRYYTQWSGSLEVTFMFAGSFMATGKMLIAYTPPGGSVPADRITAMLGTHVIWDFGLQSSVTLVVPWISNTHYRAHARAGYFDYYTTGIITIWYQTNYVVPIGAPTTAYIVALAAAQDNFTMKLCKDTEDIEQTANIQ
chain 4: GSQVSTQRSGSHENSNSASEGSTINYTTINYYKDAYAASAGRQDMSQDPKRFTDPVMDVIHEMAPPLK
modifications: biotin (EZ-Link Sulfo-NHS-LC-LC-Biotin labelling of the particles before BLI; sites not stated) | biotin (EZ-Link Sulfo-NHS-LC-LC-Biotin labelling of the particles before BLI; sites not stated) | biotin (EZ-Link Sulfo-NHS-LC-LC-Biotin labelling of the particles before BLI; sites not stated) | biotin (EZ-Link Sulfo-NHS-LC-LC-Biotin labelling of the particles before BLI; sites not stated)
- Kd: 460 pM
- koff: 0.000631 s⁻¹
